Experimental data taken from patent US20070116673.

T1: synthetic integrin α1 cytoplasmic tail peptide (RPLKKKMEKRPLKKKMEK)
T1 chain: RPLKKKMEKRPLKKKMEK

T2: α2 peptide KLGFFKRKYEKMTKNPDEIDETTELSS (synthetic integrin α2 cytoplasmic tail peptide)
T2 chain: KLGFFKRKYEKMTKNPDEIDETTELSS

B1: SHP-2 (protein tyrosine phosphatase immunoprecipitated from HeLa lysates) (protein)
chain: TSRRWFHPNITGVEAENLLLTRGVDGSFLARPSKSNPGDFTLSVRRNGAVTHIKIQNTGDYYDLYGGEKFATLAELVQYYMEHHGQLKEKNGDVIELKYPLNCADPTSERWFHGHLSGKEAEKLLTEKGKHGSFLVRESQSHPGDFVLSVRTGDDKGESNDGKSKVTHVMIRCQELKYDVGGGERFDSLTDLVEHYKKNPMVETLGTVLQLKQPLNTTRINAAEIESRVRELSKLAETTDKVKQGFWEEFETLQQQECKLLYSRKEGQRQENKNKNRYKNILPFDHTRVVLHDGDPNEPVSDYINANIIMPEFETKCNNSKPKKSYIATQGCLQNTVNDFWRMVFQENSRVIVMTTKEVERGKSKCVKYWPDEYALKEYGVMRVRNVKESAAHDYTLRELKLSKVGQGNTERTVWQYHFRTWPDHGVPSDPGGVLDFLEEVHHKQESIMDAGPVVVHCSAGIGRTGTFIVIDILIDIIREKGVDCDIDVPKTIQMVRSQRSGMVQTEAQYRFIYMAVQHYIETLQRRIEEEQKSKRKGHEYTNIKYSLADQTSGDQSPLPPCTPTPPCAEMREDSARVYENVGLMQQQKSFR
B2: endogenous TCPTP (T cell protein tyrosine phosphatase) of HeLa cells (protein)
chain: MPTTIEREFEELDTQRRWQPLYLEIRNESHDYPHRVAKFPENRNRNRYRDVSPYDHSRVKLQNAENDYINASLVDIEEAQRSYILTQGPLPNTCCHFWLMVWQQKTKAVVMLNRIVEKESVKCAQYWPTDDQEMLFKETGFSVKLLSEDVKSYYTVHLLQLENINSGETRTISHFHYTTWPDFGVPESPASFLNFLFKVRESGSLNPDHGPAVIHCSAGIGRSGTFSLVDTCLVLMEKGDDINIKQVLLNMRKYRMGLIQTPDQLRFSYMAIIEGAKCIKGDSSIQKRWKELSKEDLSPAFDHSPNKIMTEKYNGNRIGLEEEKLTGDRCTGLSSKMQDTMEENSESALRKRIREDRKATTAQKVQQMKQRLNENERKRKRWLYWQPILTKMGFMSVILVGAFVGWTLFFQQNAL

Assays:
[1] = molecular target: T1, synthetic integrin α1 cytoplasmic tail …
[2] = molecular target: T2, α2 peptide KLGFFKRKYEKMTKNPDEIDETTELSS …

| Protein | phosphatase activity of immunoprecipitated SHP-2 (diFMUP substrate) [1] | phosphatase activity of immunoprecipitated SHP-2 (diFMUP substrate) [2] | catalytic activity of immunoprecipitated TCPTP (diFMUP substrate) [1] | catalytic activity of immunoprecipitated TCPTP (diFMUP substrate) [2] |
| --- | --- | --- | --- | --- |
| B1 | another protein tyrosine phosphatase, SHP-2, was not activated by either peptide | another protein tyrosine phosphatase, SHP-2, was not activated by either peptide | – | – |
| B2 | – | – | increased 2.95±0.48 fold | the corresponding α2 tail peptide had no effect |
